Data on four molecules can be found in publication PMC2669960 (The EMBO Journal, 2009).

The chains are these.
T1: His–Ska1 (full length), tag cleaved (human, UniProt Q96BD8 1-255)
T1 sequence: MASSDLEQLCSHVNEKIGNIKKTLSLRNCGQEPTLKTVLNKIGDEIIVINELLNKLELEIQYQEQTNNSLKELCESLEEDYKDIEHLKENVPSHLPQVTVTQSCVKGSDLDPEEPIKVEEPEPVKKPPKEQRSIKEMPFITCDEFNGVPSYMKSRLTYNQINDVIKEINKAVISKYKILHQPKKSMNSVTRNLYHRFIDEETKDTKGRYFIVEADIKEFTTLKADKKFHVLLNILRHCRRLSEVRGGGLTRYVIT

T2: GST–Ska1 (full length), tag cleaved (human, UniProt Q96BD8 1-255)
T2 sequence: T1 sequence

B1: His–Ska3 (N), tag cleaved (domain or fragment)
chain: MDPIRSFCGKLRSLASTLDCETARLQRALDGEESDFEDYPMRILYDLHSEVQTLKDDVNILLDKARLENQEGIDFIKATKVLMEKNSMDIMKIREYFQKYGYSPRVKKNSVHEQEAINSDPELSNCENFQKTDVKDDLSDPPVASSCISEKSPRSP
B2: untagged Ska2 (natural protein)
chain: MEAEVDKLELMFQKAESDLDYIQYRLEYEIKTNHPDSASEKNPVTLLKELSVIKSRYQTLYARFKPVAVEQKESKSRICATVKKTMNMIQKLQKQTDLELSPLTKEEKTAAEQFKFHMPDL
B3: GST–Ska2 (full length), tag cleaved (natural protein)
chain: B2 chain
B4: His–Ska1 (N), tag cleaved (domain or fragment)
chain: MASSDLEQLCSHVNEKIGNIKKTLSLRNCGQEPTLKTVLNKIGDEIIVINELLNKLELEIQYQEQTNNSLKELCESLEEDYKDIEHLKENVPSHLPQVTVTQSCVKGSDLDPEEPIKVEEPEPVKKPPKE

Assay in all cases: co-purification
The target in test [1] is T1, His–Ska1 (full length), tag cleaved.
Test [2] has as its target T2, GST–Ska1 (full length), tag cleaved.
For test [3] the target is unchanged. This is another data set of the same source.
Test [4] concerns the target T1, His–Ska1 (full length), tag cleaved. This is another data set of the same source.
For test [5], the target named is B4.
For test [6], the target named is B1.
The target of test [7] is B1. This is another data set of the same source.

Like-named read-outs stand apart in the source and are kept apart here.

Take B1: the binding result in test [1] and in test [2] was “binds” each time.

In the case of B2, the binding result in test [3] is “binds”. Turning to B3, the binding result in test [4], in test [5] and in test [6] was “binds” each time. Consider B4, for which the binding result in test [7] was “binds”.
